Positions count from the first letter of the chain named.
What was measured:
MAZ WT [1] = target: T1, MAZ WT (human, UniProt P56270 1-477); assay: EMSA; Binding buffer 250 mM HEPES, 500 mM KCl, 20 mM MgSO4, 10 mM DTT pH 8.0 (so in the source), on ice 30 min; G4 oligos annealed in 50 mM Tris-HCl, 50 mM KCl, 40% PEG200; 8% native PAGE (G4 gels with 100 mM KCl, 40% PEG200); settings: protein: recombinant, tags: His6 (also mCherry-His6 fusion), label: FAM
T1 sequence: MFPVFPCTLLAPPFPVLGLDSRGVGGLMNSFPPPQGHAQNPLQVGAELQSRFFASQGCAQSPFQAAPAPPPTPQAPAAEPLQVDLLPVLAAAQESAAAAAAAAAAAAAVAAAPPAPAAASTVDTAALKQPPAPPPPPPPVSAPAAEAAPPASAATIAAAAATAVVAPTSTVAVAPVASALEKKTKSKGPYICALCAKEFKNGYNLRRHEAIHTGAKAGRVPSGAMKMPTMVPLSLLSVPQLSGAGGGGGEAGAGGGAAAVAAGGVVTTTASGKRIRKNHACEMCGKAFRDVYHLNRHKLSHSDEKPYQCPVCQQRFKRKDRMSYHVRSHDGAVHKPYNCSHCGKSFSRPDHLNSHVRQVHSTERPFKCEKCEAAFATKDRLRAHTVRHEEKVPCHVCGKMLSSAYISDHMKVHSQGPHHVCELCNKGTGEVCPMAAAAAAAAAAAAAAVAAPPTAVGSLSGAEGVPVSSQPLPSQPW

MAZ WT [2] = target: T1, MAZ WT; assay: EMSA; KCl-annealed; Binding buffer 250 mM HEPES, 500 mM KCl, 20 mM MgSO4, 10 mM DTT pH 8.0 (so in the source), on ice 30 min; G4 oligos annealed in 50 mM Tris-HCl, 50 mM KCl, 40% PEG200; 8% native PAGE (G4 gels with 100 mM KCl, 40% PEG200); settings: protein: recombinant, tags: His6 (also mCherry-His6 fusion), label: FAM
MAZ WT [3] = target: T1, MAZ WT; assay: competition; unlabeled WT vs FAM-WT; Binding buffer 250 mM HEPES, 500 mM KCl, 20 mM MgSO4, 10 mM DTT pH 8.0 (so in the source), on ice 30 min; G4 oligos annealed in 50 mM Tris-HCl, 50 mM KCl, 40% PEG200; 8% native PAGE (G4 gels with 100 mM KCl, 40% PEG200); settings: protein: recombinant; tags: His6 (also mCherry-His6 fusion); label: FAM; G4 parallel, intra- and/or intermolecular
MAZ(ZF4) = target: T2, MAZ(ZF4) (human, UniProt P56270 337-360); assay: EMSA; Binding buffer 250 mM HEPES, 500 mM KCl, 20 mM MgSO4, 10 mM DTT pH 8.0 (so in the source), on ice 30 min; G4 oligos annealed in 50 mM Tris-HCl, 50 mM KCl, 40% PEG200; 8% native PAGE (G4 gels with 100 mM KCl, 40% PEG200); settings: protein: recombinant; tags: mCherry; His6; label: FAM; G4 parallel, intra- and/or intermolecular
T2 chain: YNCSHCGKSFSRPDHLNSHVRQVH

MAZ(ZF2-3) = target: T3, MAZ(ZF2-3) (human, UniProt P56270 279-329); assay: as above; settings: protein: recombinant; tags: mCherry; His6; label: FAM; G4 parallel, intra- and/or intermolecular
T3 sequence: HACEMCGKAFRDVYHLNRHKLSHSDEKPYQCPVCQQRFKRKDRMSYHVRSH

BRD4-IDR = BRD4-IDR (UniProt O60885 674-1351); assay: as above; settings: protein: recombinant, tags: EGFP, His6, label: FAM
MAZ(ZF3-4) = target: T4, MAZ(ZF3-4) (human, UniProt P56270 307-360); assay: as above; settings: protein: recombinant; tags: mCherry; His6; label: FAM; G4 parallel, intra- and/or intermolecular
T4 sequence: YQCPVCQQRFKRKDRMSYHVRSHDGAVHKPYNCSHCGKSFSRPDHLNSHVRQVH

MAZ(ZF2-4) = target: T5, MAZ(ZF2-4) (human, UniProt P56270 279-360); assay: as above; settings: protein: recombinant; tags: mCherry; His6; label: FAM; G4 parallel, intra- and/or intermolecular
T5 sequence: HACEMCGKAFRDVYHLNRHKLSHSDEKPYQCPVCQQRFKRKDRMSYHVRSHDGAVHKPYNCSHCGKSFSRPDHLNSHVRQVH

MED1-IDR = MED1-IDR (UniProt Q15648 948-1574); assay: as above; settings: protein: recombinant, tags: EGFP, His6, label: FAM
[4] = G4 parallel, intra- and/or intermolecular

Chain of MED1-IDR (Q15648 948-1574): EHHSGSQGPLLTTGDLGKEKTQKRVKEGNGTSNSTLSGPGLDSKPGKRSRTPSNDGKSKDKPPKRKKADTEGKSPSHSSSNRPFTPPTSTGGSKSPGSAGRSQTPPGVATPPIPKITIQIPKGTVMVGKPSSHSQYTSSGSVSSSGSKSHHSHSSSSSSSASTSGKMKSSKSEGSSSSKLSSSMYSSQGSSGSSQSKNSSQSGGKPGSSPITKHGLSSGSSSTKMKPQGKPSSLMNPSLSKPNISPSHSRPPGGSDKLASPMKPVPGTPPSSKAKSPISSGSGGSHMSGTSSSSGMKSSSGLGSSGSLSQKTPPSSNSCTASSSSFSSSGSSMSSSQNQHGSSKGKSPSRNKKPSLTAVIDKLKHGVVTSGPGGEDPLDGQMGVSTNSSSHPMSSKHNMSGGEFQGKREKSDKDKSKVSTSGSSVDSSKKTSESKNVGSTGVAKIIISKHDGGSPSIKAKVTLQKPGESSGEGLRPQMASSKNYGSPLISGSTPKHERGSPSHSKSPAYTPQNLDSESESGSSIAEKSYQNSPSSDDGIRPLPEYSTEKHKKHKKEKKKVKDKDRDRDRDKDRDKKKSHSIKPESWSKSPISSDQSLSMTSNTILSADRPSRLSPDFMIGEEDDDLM

TGAGGGTGGGTAGGGTGGGTAA (structured_DNA) [MYC-G4 (Table S2)]: binds (MAZ WT [1]; G4 parallel, 3 quartets).

B1: BS3 (dsDNA)
DNA 1: GGGGGGCGGGGGCG
DNA 2: CGCCCCCGCCCCCC
B1: binds (MAZ WT [1]; blunt).

GGGGCGCGGGGCGCGGGGCATGGGG (structured_DNA) [MDM2-G4]: binds (MAZ WT [1]; G4 antiparallel, 4 quartets).

B2: CCND1-G4 Mut2 (structured_DNA)
DNA: ATGGGAGCGAGAGGAGGGCGGGGGCGGACGCAGGAGGAGGGGGCGCGGGCG
B2: binds (MAZ WT [2]; intermolecular parallel G4).

B3: CCND1-G4 WT (structured_DNA)
DNA: B2 DNA with A10G, A15G, A28G, A35G
B3: binds (MAZ WT [3]); no binding (MAZ(ZF4)); no binding (MAZ(ZF2-3)). B3: binds (BRD4-IDR; [4]); no binding (MAZ(ZF3-4)); binds (MAZ(ZF2-4)). B3: binds (MED1-IDR; [4]).

TAGGGTTAGGGTTAGGGTTAGGGTTAG (structured_DNA) [TEL-G4]: binds (MAZ WT [1]; G4 hybrid, 3 quartets).

GGGCGCGGGAGGAATTGGGCGGG (structured_DNA) [BCL2-G4]: binds (MAZ WT [1]; G4 hybrid, 3 quartets).

B4: CCND1-G4 Mut1 (ssDNA)
DNA: ATGAGAGCGAGAGAGAGACGAGAGCGAGCGCAGAGAGAGAGAGCGCGAGCG
B4: no binding (MAZ WT [2]; no G4); no binding (BRD4-IDR; no G4); no binding (MED1-IDR; no G4).

GGAGGAGGAGGAGGAGGAGGAGGA (structured_DNA) [MYB-G4]: binds (MAZ WT [1]; 2 G4s with two quartets).

B5: BS2 (dsDNA)
DNA 1: AGCGGGAGGGGGGC
DNA 2: GCCCCCCTCCCGCT
B5: binds (MAZ WT [1]; blunt).

B6: BS1 (dsDNA)
DNA 1: AGGGGGAGGGGGCG
DNA 2: CGCCCCCTCCCCCT
B6: binds (MAZ WT [1]; blunt).

Reference: article PMC10844655, “G-quadruplexes promote the motility in MAZ phase-separated condensates to activate CCND1 expression and contribute to hepatocarcinogenesis”
